Test results taken from US20210269549A1, “ANTI-SAS1B ANTIBODIES, ASSOCIATED METHODS OF USE, AND COMPOSITIONS AND METHODS FOR DETECTING AND TREATING CANCER” (UNIVERSITY OF VIRGINIA PATENT FOUNDATION, priority 2015, published 2021).

What was measured:
[1] = system: human uterine cancer cells (MMMT539); assay: Antibody drug conjugate cytotoxicity (ADC) assay, MMMT539; type: cell-based; details: FIG. 3A-B
Description: The cytotoxic effect of anti-human SAS1B mAbs SB2 and SB5 on human uterine cancer cells (MMMT539) was examined by antibody drug conjugate cytotoxicity (ADC) assay. Human uterine cancer cells MMMT539 were seeded in triplicate on 96 well plate overnight and then treated with SB2 or SB5 and anti-mouse Fab-cleavable-Duocarmycin complex for ˜90 h. The presence of viable live cells per well was measured by total cellular ATP content in relative luminescence unit (RLU). Viability of control live cells (100%) was determined from average of 9 wells in terms of total cellular ATP (in RLU) containing the constant 15 nM Fab-CL-DMDM for each set of antibody/reagent. […] Staurosporine, a general protein kinase inhibitor, was used to induce apoptosis in 1% DMSO as a positive control for the assay.

[2] = target: T1, full-length SAS1B splice variant A polypeptide (Homo sapiens, UniProt Q6HA08); assay: Western blot with mammalian cell-expressed recombinant SAS1B, full length; type: binding
T1 construct: made in house
T1 sequence (Q6HA08 24-431): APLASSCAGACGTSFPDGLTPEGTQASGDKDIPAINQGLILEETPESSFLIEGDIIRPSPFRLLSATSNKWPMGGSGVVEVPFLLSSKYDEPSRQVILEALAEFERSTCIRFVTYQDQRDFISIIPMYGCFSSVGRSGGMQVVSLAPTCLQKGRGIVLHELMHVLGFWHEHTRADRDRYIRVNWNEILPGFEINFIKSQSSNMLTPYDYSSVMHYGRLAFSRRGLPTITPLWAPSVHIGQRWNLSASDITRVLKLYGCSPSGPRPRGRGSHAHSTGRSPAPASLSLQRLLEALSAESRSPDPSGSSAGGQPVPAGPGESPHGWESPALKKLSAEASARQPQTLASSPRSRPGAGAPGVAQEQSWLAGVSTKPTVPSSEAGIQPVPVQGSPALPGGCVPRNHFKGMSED
Description: (§1) SAS1B monoclonal antibodies were analyzed with mammalian cell-expressed recombinant SAS1B by western blotting.

[3] = target: T2, human SAS1B protein with a C-terminal V5 tag expressed by HEK293T cells (Homo sapiens, UniProt Q6HA08); assay: Double immunofluorescence on fixed and permeabilized HEK293T cells transfected with SAS1B SV-A with V5 tag; type: cell-based; details: for IF signal / colocalization with V5-tag epitope signal: SV-A transfected HEK293T, PFA fixed, methanol permeabilized, mAbs at 10 ug/ml
T2 construct: expressed in transfected cells; host or cells: HEK293T
T2 sequence (Q6HA08 24-431): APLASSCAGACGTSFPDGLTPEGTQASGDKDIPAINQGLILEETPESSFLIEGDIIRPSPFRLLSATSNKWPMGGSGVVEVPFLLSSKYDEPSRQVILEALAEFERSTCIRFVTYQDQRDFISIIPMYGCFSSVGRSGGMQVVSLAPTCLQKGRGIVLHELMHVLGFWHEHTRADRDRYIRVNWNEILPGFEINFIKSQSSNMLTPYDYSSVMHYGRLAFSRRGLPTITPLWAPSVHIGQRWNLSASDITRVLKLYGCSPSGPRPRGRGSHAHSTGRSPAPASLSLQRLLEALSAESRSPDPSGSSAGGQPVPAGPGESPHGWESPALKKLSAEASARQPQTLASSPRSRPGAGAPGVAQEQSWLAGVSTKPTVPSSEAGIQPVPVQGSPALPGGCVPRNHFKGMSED
Description: Experiments were conducted to determine the specificity of anti-human SAS1B monoclonal antibodies SB1, SB2, SB3, SB4, SB5, SB6 and SB7 against the human SAS1B protein with a C-terminal V5 tag expressed by HEK293T cells by double immuno-fluorescence from two different SAS1B epitopes. HEK293T cells were seeded at ˜100,000 per well of a 24 well plate containing a lysine-coated 12 mm coverslip. 24 hours later, the cells were transfected with 1 ug of SV-A plasmid with 2 ul of TURBOFECT® transfection reagent followed by no change of media. 48 h later the cells were PFA (paraformaldehyde) fixed and methanol permeabilized for an IF study as follows.
The cells were removed from cell culture media and fixed in 4% PFA in PBS, 300 ul for 15 min. The cells were washed in 1 ml PBS in wells for 3 times and permeabilized in methanol (100%) for 15 min in 0.5 ml at RT. The cells were washed in PBS 1 ml for 3 times and blocked in complete culture media (DMEM) with 5% normal goat serum (NGS) for 30 min (i.e. BB, blocking buffer). The first antibody in BB was added for 1 h at 10 ug/ml for mouse monoclonal antibodies (SB1, SB2, SB3, SB4, SB5, SB6, SB7) and 5 ug/ml for anti-V5 DYLIGHT® 488 (green) rabbit (a rabbit polyclonal antibody to V5 tag). The cells were washed in PBS 3 times. The second antibody in BB (Goat anti-mouse Alexa Flour 594, red) was added for 1 h at 5 ug/ml (1:200 dilution). The cells were washed in PBS 3 times. The cells were mounted in slow fade DAPI 3 ul and stored at 4° C. before confocal imaging.

human SAS1B = target: T3, human SAS1B (Homo sapiens, UniProt Q6HA08); assay: Western blot of human SAS1B probed with anti-human SAS1B murine mAbs; type: binding; details: for Specifically binds human SAS1B (and not mouse SAS1B): Table 1
T3 construct: made in house; host or cells: E. coli
T3 sequence (Q6HA08 24-431): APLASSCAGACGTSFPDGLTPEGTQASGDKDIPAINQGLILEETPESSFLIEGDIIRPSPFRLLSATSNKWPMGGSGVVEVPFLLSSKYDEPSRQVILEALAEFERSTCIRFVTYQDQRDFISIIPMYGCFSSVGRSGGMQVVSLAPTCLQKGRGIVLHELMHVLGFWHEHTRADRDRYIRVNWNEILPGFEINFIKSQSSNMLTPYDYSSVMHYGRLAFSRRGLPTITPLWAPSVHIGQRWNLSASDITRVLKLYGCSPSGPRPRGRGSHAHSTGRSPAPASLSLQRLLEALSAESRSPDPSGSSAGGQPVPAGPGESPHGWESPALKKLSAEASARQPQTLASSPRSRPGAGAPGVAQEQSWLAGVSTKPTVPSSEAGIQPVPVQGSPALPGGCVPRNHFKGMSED
Source text: A western blot of human SAS1B and mouse SAS1B was probed with anti-human SAS1B murine monoclonal antibodies SB1, SB2, SB3, SB4, SB5, SB6, and SB7.

[4] = target: T4, SAS1B extracellular domain (aa 164-431) polypeptide (Homo sapiens, UniProt Q6HA08); assay: Western blot with mammalian cell-expressed recombinant SAS1B, extracellular domain; type: binding
T4 construct: SAS1B extracellular domain (aa 164-431) polypeptide; made in house
T4 sequence (Q6HA08 164-431): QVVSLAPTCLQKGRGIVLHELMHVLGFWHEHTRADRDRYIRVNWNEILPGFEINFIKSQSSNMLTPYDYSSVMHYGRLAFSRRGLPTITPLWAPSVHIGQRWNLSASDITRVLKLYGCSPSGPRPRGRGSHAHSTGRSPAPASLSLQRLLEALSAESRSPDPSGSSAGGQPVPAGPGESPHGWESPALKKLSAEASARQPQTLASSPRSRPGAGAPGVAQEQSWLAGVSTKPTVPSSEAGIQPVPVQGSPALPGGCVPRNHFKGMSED
Description: as §1

CN[C@@H]1C[C@H]2O[C@@](C)([C@@H]1OC)n1c3ccccc3c3c4c(c5c6ccccc6n2c5c31)C(=O)NC4 [Staurosporine, reference compound]
Cell killing [1]: killed the cancer cells in a dose dependent manner

B1: SB6: mouse anti-human SAS1B monoclonal antibody, IgG2b; VH SEQ ID NO:16, VL SEQ ID NO:18 (antibody, listed as Mus musculus, V domains shown)
VH: EVQLQQSGPELVKPGSSVKISCKPSGYTFTDYNMVWMKQSHGKSLEWIGAINPNNGGTTYNQKFKGKATLTVDKSSSTAYMELRSLTSEDSAVYYCAPNWDWFAYWGQGTLVTVSA
VL: DVLMTQIPLSLPVSLGDQASISCRSSQSILHSNGNTYLEWYLQKPGQSPKLLIYKVSNRFSGVPDRFSGSGSGTDFTLKISRVEAEDLGVYYCFQGSHVPFTFGSGTKLEIK
Reaction with full-length SAS1B splice variant A polypeptide [2]: reacted with the full-length SAS1B splice variant A polypeptide
IF signal / colocalization with V5-tag epitope signal [3]: colocalize (merge) with V5-tag epitope signal
Signal on mock transfected HEK293T cells [3]: no V5 signal or SAS1B signal
Reactivity on western blot of human SAS1B and mouse SAS1B (human SAS1B): specific to the human SAS1B only
Specificity in western blot for human SAS1B antigen in an E. coli protein background (human SAS1B): demonstrated specificity
Specifically binds human SAS1B (and not mouse SAS1B) (human SAS1B): Yes
Reaction with SAS1B extracellular domain (aa 164-431) polypeptide [4]: none of the them reacted

B2: SB7: mouse anti-human SAS1B monoclonal antibody, IgG2b; VH SEQ ID NO:16, VL SEQ ID NO:18 (antibody, listed as Mus musculus, V domains shown)
VH: EVQLQQSGPELVKPGSSVKISCKPSGYTFTDYNMVWMKQSHGKSLEWIGAINPNNGGTTYNQKFKGKATLTVDKSSSTAYMELRSLTSEDSAVYYCAPNWDWFAYWGQGTLVTVSA
VL: DVLMTQIPLSLPVSLGDQASISCRSSQSILHSNGNTYLEWYLQKPGQSPKLLIYKVSNRFSGVPDRFSGSGSGTDFTLKISRVEAEDLGVYYCFQGSHVPFTFGSGTKLEIK
Reaction with full-length SAS1B splice variant A polypeptide [2]: reacted with the full-length SAS1B splice variant A polypeptide
IF signal / colocalization with V5-tag epitope signal [3]: colocalize (merge) with V5-tag epitope signal
Signal on mock transfected HEK293T cells [3]: no V5 signal or SAS1B signal
Reactivity on western blot of human SAS1B and mouse SAS1B (human SAS1B): specific to the human SAS1B only
Specificity in western blot for human SAS1B antigen in an E. coli protein background (human SAS1B): demonstrated specificity
Specifically binds human SAS1B (and not mouse SAS1B) (human SAS1B): Yes
Reaction with SAS1B extracellular domain (aa 164-431) polypeptide [4]: none of the them reacted
